Data as given in patent publication US20220119540A1 (NANJING GENSCRIPT BIOTECH, published 2022).
Numbering of substitutions follows the chain as printed.

Tests used:
[1] = molecular target: T1, Recombinant human OX40-His protein (human, UniProt P43489 29-214, limits assumed); test: kinetic ranking (RU, 1:1 binding model), prokaryotically expressed antibody product as ligand, OX40-His as analyte
T1 construct: Recombinant antigen protein; also called recombinant human OX-40 protein; human OX-40 protein; not shown: His tag
T1 sequence (looked up): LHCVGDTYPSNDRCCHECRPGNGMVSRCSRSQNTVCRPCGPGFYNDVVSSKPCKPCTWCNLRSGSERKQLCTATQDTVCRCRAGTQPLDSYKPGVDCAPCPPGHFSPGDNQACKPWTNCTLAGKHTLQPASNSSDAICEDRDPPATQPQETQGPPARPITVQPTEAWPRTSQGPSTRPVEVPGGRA

[2] = molecular target: T1, Recombinant human OX40-His protein; test: SPR (Biacore 8K), OX40-HIS coupled to chip, antibody as analyte, 1:1 binding model
Procedure: The chip surface was equilibrated with HBS-EP buffer at a flow rate of 10 μl/min for 5 min, and then a 1:1 mixture of “NHS+EDC” was injected at a flow rate of 10 μl/min for 100 sec to activate the chip. The antigen protein (OX40-HIS) diluted in 10 mM sodium acetate buffer was injected for about 180 sec at a flow rate of 10 μl/min for coupling, and finally ethanolamine was injected for 200 sec at a flow rate of 10 μl/min to block the surface.
Three pre-cycles were performed with the HBS-EP buffer as a sample to balance the chip to stabilize the baseline. A low concentration of antibody was injected at a flow rate of 30 μl/min for 200 sec, to allow the antigen to bind to the antibody, and then the buffer was injected at a flow rate of 30 μl/min for 400 sec for dissociation. 10 mM Gly-HCl pH2.0 was injected three times each for 30 sec at a flow rate of 30 μl/min for regeneration, to complete one cycle.
The antibody concentration was changed to carry out the cycle for measurement at a next gradient concentration until all gradient concentrations (2.5 nM, 5 nM, 10 nM, 20 nM, 40 nM, and […]) and the replicate (such as 20 nM) were tested. The experimental data was double subtracted (minus the background values of the control channel and zero concentration), and fitted to the “1:1 binding” model in the Biacore 8K evaluation software. Biacore 8K was used to determine the affinity of the antibody to the OX40-HIS recombinant protein.

[3] = molecular target: T2, Recombinant monkey OX-40 protein (monkey); test: ELISA, plate coated with recombinant monkey OX-40 protein, antibody titrated
T2 chain: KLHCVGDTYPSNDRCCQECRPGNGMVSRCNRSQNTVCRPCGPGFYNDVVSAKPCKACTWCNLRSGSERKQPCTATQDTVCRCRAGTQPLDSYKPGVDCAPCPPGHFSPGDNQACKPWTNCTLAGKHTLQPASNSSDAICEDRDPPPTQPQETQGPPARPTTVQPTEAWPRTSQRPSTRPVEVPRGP

[4] = molecular target: T1, Recombinant human OX40-His protein; test: ELISA, plate coated with recombinant human OX-40 protein, antibody titrated
Procedure: Recombinant human OX-40 protein and recombinant monkey OX-40 protein were respectively used to detect the cross-recognition ability of humanized monoclonal antibodies for human/monkey OX-40 protein.
The ELISA plate (Nunc) was coated with 100 μl/well of […] recombinant OX40-His protein in PBS at 4° C. overnight. The plate was washed with PBS-T (0.05% Tween) and blocked with 200 μl/well of PBST containing 1% BSA at 37° C. for 0.5 hr. Then the blocking buffer was discarded, 100 μl of 1000 ng/ml purified antibody was added to the first well, 3-fold serial dilutions were made, and a total of 11 test concentration gradients were given. Then the system was incubated for 1 hr at room temperature. The plate was washed three times with PBST and incubated with 100 μl/well of horseradish peroxidase-conjugated goat anti-human Fab fragment-IgG (Fab-specific) (GenScript) at 37° C. for 0.5 hr. The plate was washed 5 times with PBST, and then a TMB developing solution (GenScript) was added and incubated at room temperature for 15 min in the dark. The reaction was terminated by adding 50 μl of 1 M HCl stop solution (Sigma). The plate was read at 450 nm on a microplate reader.

[5] = molecular target: T3, OX40 on a functional cell line overexpressing OX40 (UniProt P43489 29-277, limits assumed); test: cell-based or functional assay
T3 sequence (looked up): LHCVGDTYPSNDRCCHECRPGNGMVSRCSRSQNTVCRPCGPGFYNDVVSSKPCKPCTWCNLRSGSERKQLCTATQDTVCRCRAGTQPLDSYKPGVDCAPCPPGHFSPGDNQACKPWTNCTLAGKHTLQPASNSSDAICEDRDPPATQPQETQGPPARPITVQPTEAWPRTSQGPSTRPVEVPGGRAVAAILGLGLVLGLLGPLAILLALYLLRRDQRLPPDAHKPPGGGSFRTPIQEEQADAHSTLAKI

B1: AH02906, prokaryotically expressed antibody product (back-mutation screening) (Fab, V domains shown)
VH: QVQLVQSGAEVKKPGASVKVSCKASGYTFTDYSMHWVKQAPGQGLEWMGWISTETGEPTYADDFKGRFTITLDTSASTAYMELSSLRSEDTAVYYCARVRPWYLAVWGQGTLVTVSS
VL: DIQMTQSPSSLSASVGDRVTITCRASQDISNYLNWYQQKPGKAPKLLIYYTSRLYSGVPSRFSGSGSGTDYTLTISSLQPEDIATYFCQQANTLPLTFGGGTKLEIK
B1 gave a Kd [1] of 15.6 nM, a koff [1] of 0.00511 s⁻¹ and a kon [1] of 328000 M⁻¹ s⁻¹.

B2: AH02906 humanized anti-human OX40 monoclonal antibody (recombinant human IgG1/kappa) (antibody, V domains shown)
VH: B1 VH
VL: B1 VL
B2 gave a Kd [2] of 2.83 nM, a koff [2] of 0.00116 s⁻¹ and a kon [2] of 408000 M⁻¹ s⁻¹.

B3: AH02923, prokaryotically expressed antibody product (back-mutation screening) (Fab, V domains shown)
VH: B1 VH with K38R, I70F, M81L
VL: B1 VL with P44V, L73F, F87Y
B3 gave a Kd [1] of 10.8 nM, a koff [1] of 0.00344 s⁻¹ and a kon [1] of 317000 M⁻¹ s⁻¹.

B4: AH02921 humanized anti-human OX40 monoclonal antibody (recombinant human IgG1/kappa) (antibody, V domains shown)
VH: B1 VH with A9P, K38R, M81L, L83I, Y95F, A105T
VL: B1 VL
B4 gave an EC50 [3] of 0.0376 µg/mL, an EC50 [4] of 0.0161 µg/mL and a Kd [2] of 1.34 nM. The koff [2] was 0.000439 s⁻¹, the kon [2] was 327000 M⁻¹ s⁻¹ and the “IL-8 secretion by OX40 overexpressing functional cell line, EC50” value [5] was 2.14 nM. The “IL-8 secretion by OX40 overexpressing functional cell line, best-fit value Bottom” value (shortened to “IL-8 secretion … best-fit value Bottom”) [5] was 4420, the “IL-8 secretion by OX40 overexpressing functional cell line, best-fit value LogEC50” value (from here on “IL-8 secretion … best-fit value LogEC50”) [5] was 0.329 and the “IL-8 secretion by OX40 overexpressing functional cell line, best-fit value Top” value (from here on “IL-8 secretion … best-fit value Top”) [5] was 19500.

B5: AH02925, prokaryotically expressed antibody product (back-mutation screening) (Fab, V domains shown)
VH: B1 VH with F68V, L72R, M81L, L83I, Y95F
VL: B1 VL with P44V, Y71F, F87Y
Binder B5 has a Kd [1] of 14.9 nM, a koff [1] of 0.00439 s⁻¹ and a kon [1] of 295000 M⁻¹ s⁻¹.

B6: AH02913 humanized anti-human OX40 monoclonal antibody (recombinant human IgG1/kappa) (antibody, V domains shown)
VH: B1 VH with A9P, F68V, Y95F
VL: B1 VL with P44V, L73F
Binder B6 has an EC50 [3] of 0.0353 µg/mL, an EC50 [4] of 0.0161 µg/mL and a Kd [2] of 1.76 nM. For the same binder, the koff [2] was 0.00067 s⁻¹, the kon [2] was 381000 M⁻¹ s⁻¹ and the “IL-8 secretion by OX40 overexpressing functional cell line, EC50” value [5] was 1.62 nM. For the same binder, the “IL-8 secretion … best-fit value Bottom” value [5] was 3950, the “IL-8 secretion … best-fit value LogEC50” value [5] was 0.209 and the “IL-8 secretion … best-fit value Top” value [5] was 24200.

B7: AH02915, prokaryotically expressed antibody product (back-mutation screening) (Fab, V domains shown)
VH: B1 VH with F68V, M81L, L83I
VL: B1 VL with Y71F
B7 showed a Kd [1] of 14.3 nM, a koff [1] of 0.00307 s⁻¹ and a kon [1] of 215000 M⁻¹ s⁻¹.

B8: AH02916 humanized anti-human OX40 monoclonal antibody (recombinant human IgG1/kappa) (antibody, V domains shown)
VH: B1 VH with F68V
VL: B1 VL with P44V, L73F
Work on B8 yielded an EC50 [3] of 0.0323 µg/mL, an EC50 [4] of 0.0131 µg/mL and a Kd [2] of 2.46 nM. For the same binder, the koff [2] was 0.000659 s⁻¹, the kon [2] was 268000 M⁻¹ s⁻¹ and the “IL-8 secretion by OX40 overexpressing functional cell line, EC50” value [5] was 3 nM. The “IL-8 secretion … best-fit value Bottom” value [5] was 3590, the “IL-8 secretion … best-fit value LogEC50” value [5] was 0.476 and the “IL-8 secretion … best-fit value Top” value [5] was 24600.

B9: AH02919, prokaryotically expressed antibody product (back-mutation screening) (Fab, V domains shown)
VH: B1 VH with F68V, L72R, M81L, L83I, Y95F
VL: B1 VL with P44V, F87Y
Binder B9 has a Kd [1] of 15.1 nM, a koff [1] of 0.00505 s⁻¹ and a kon [1] of 335000 M⁻¹ s⁻¹.

B10: AH02913, prokaryotically expressed antibody product (back-mutation screening) (Fab, V domains shown)
VH: B1 VH with A9P, F68V, Y95F
VL: B1 VL with P44V, L73F
B10 gave a Kd [1] of 12.5 nM, a koff [1] of 0.00425 s⁻¹ and a kon [1] of 339000 M⁻¹ s⁻¹.

B11: AH02916, prokaryotically expressed antibody product (back-mutation screening) (Fab, V domains shown)
VH: B1 VH with F68V
VL: B1 VL with P44V, L73F
B11 showed a Kd [1] of 15.7 nM, a koff [1] of 0.00384 s⁻¹ and a kon [1] of 245000 M⁻¹ s⁻¹.

B12: AH02925 humanized anti-human OX40 monoclonal antibody (recombinant human IgG1/kappa) (antibody, V domains shown)
VH: B1 VH with F68V, L72R, M81L, L83I, Y95F
VL: B1 VL with P44V, Y71F, F87Y
For B12, the Kd [2] was 2.22 nM, the koff [2] was 0.00115 s⁻¹ and the kon [2] was 520000 M⁻¹ s⁻¹.

B13: AH02921, prokaryotically expressed antibody product (back-mutation screening) (Fab, V domains shown)
VH: B1 VH with A9P, K38R, M81L, L83I, Y95F, A105T
VL: B1 VL
B13 showed a Kd [1] of 3.35 nM, a koff [1] of 0.0013 s⁻¹ and a kon [1] of 388000 M⁻¹ s⁻¹.

B14: AH02917 humanized anti-human OX40 monoclonal antibody (recombinant human IgG1/kappa) (antibody, V domains shown)
VH: B1 VH with Y95F
VL: B1 VL with P44V, Y71F, F87Y
B14 gave a Kd [2] of 2.6 nM, a koff [2] of 0.00106 s⁻¹ and a kon [2] of 407000 M⁻¹ s⁻¹.

B15: AH02919 humanized anti-human OX40 monoclonal antibody (recombinant human IgG1/kappa) (antibody, V domains shown)
VH: B1 VH with F68V, L72R, M81L, L83I, Y95F
VL: B1 VL with P44V, F87Y
Work on B15 yielded an EC50 [3] of 0.0391 µg/mL, an EC50 [4] of 0.0143 µg/mL and a Kd [2] of 2.09 nM. The koff [2] was 0.000776 s⁻¹, the kon [2] was 372000 M⁻¹ s⁻¹ and the “IL-8 secretion by OX40 overexpressing functional cell line, EC50” value [5] was 1.03 nM. For the same binder, the “IL-8 secretion … best-fit value Bottom” value [5] was 3060, the “IL-8 secretion … best-fit value LogEC50” value [5] was 0.0123 and the “IL-8 secretion … best-fit value Top” value [5] was 19000.

B16: AH02922, prokaryotically expressed antibody product (back-mutation screening) (Fab, V domains shown)
VH: B1 VH with V20I, K38R, G44R, F68V, L72R, A105V
VL: B1 VL with F87Y
For B16, the Kd [1] was 2.37 nM, the koff [1] was 0.000534 s⁻¹ and the kon [1] was 225000 M⁻¹ s⁻¹.

B17: AH02922 humanized anti-human OX40 monoclonal antibody (recombinant human IgG1/kappa) (antibody, V domains shown)
VH: B1 VH with V20I, K38R, G44R, F68V, L72R, A105V
VL: B1 VL with F87Y
In the case of B17, the Kd [2] is reported as 1.36 nM, the koff [2] is reported as 0.00029 s⁻¹ and the kon [2] is reported as 213000 M⁻¹ s⁻¹.

B18: AH02915 humanized anti-human OX40 monoclonal antibody (recombinant human IgG1/kappa) (antibody, V domains shown)
VH: B1 VH with F68V, M81L, L83I
VL: B1 VL with Y71F
B18 showed a Kd [2] of 3 nM, a koff [2] of 0.00142 s⁻¹ and a kon [2] of 472000 M⁻¹ s⁻¹.

B19: AH02917, prokaryotically expressed antibody product (back-mutation screening) (Fab, V domains shown)
VH: B1 VH with Y95F
VL: B1 VL with P44V, Y71F, F87Y
For B19, the Kd [1] was 13.7 nM, the koff [1] was 0.00396 s⁻¹ and the kon [1] was 288000 M⁻¹ s⁻¹.

B20: Chimeric antibody (anti-human OX40, recombinant, human IgG1/kappa constant regions) (antibody, V domains shown)
VH: QIQLVQSGPELKKPGETVKISCKASGYTFTDYSMHWVKQAPGKGLKWMGWISTETGEPTYADDFKGRFAFSLETSASTAYLQIKNLKNEDTASYFCARVRPWYLAVWGAGTTVTVSS
VL: DIQMTQTTSSLSASLGDRVTISCRASQDISNYLNWYQQKPDGTVKLLIYYTSRLYSGVPSRFSGSGSGADYSLTVSNLEQEDIATYFCQQANTLPLTFGAGTKLELK
In the case of B20, the EC50 [3] is reported as 0.0618 µg/mL, the EC50 [4] is reported as 0.0138 µg/mL and the Kd [2] is reported as 2.4 nM. For the same binder, the koff [2] was 0.000814 s⁻¹ and the kon [2] was 339000 M⁻¹ s⁻¹.
